# Reference: US20230102344A1 (MARENGO THERAPEUTICS, published 2023)
# Changes are numbered by the printed parent chain. Names may count otherwise.
# T1: Human NKp30 (BKM0179) (human, UniProt O14931 19-135, limits assumed)
# T1 sequence (looked up): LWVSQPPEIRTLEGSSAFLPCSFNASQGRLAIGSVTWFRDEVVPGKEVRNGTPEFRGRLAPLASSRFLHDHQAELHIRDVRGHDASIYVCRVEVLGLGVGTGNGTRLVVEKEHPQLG
# B1: BJM0898 (antibody, V domains shown)
# VH: QVQLVQSGAEVKKPGSSVKVSCKASGTDFKLTYIHWVRQAPGQGLEWMGRIFPGSGNVKYNEKFKGRVTITADTSTSTAYMELSSLRSEDTAVYYCAVSYYSYDVLDYWGQGTTVTVSS
# VL: DIQMTQSPSFLSASVGDRVTITCKASQNVDNRVAWYQQKPGKAPKALIYSSSHRYKGVPSRFSGSGSGTEFTLTISSLQPEDFATYFCQQFKSYPLTFGQGTKLEIK
# B2: BJM0900 (antibody, V domains shown)
# VH: B1 VH with T27H, K30R, F52S, P53A
# VL: B1 VL with D30A, N31D
# B3: BJM0387 (bispecific antibody, not shown: a dimerising Fc or GST; large carriers)
# heavy: QVQLVQSGAEVKKPGSSVKVSCKASGYSFTTYYIHWVRQAPGQGLEWMGWFFPGSGNIKYNEKFKGRVTITADTSTSTAYMELSSLRSEDTAVYYCAGSYYSYDVLDYWGQGTTVTVSSGGGGSGGGGSGGGGSGGGGSDIQMTQSPSFLSASVGDRVTITCKASQNVGINVVWHQQKPGKAPKALIYSSSHRYSGVPSRFSGSGSGTEFTLTISSLQPEDFATYFCQQFKSYPLTFGQGTKLEIKGGGGSQVQLVQSGAEVKKPGSSVKVSCKASGYTFTDYNMHWVRQAPGQGLEWIGYIYPYNGGTGYNQKFKSKATITADESTNTAYMELSSLRSEDTAVYYCARGRPAMDYWGQGTLVTVSS
# light: DIQMTQSPSSLSASVGDRVTITCRASESVDNYGISFMNWFQQKPGKAPKLLIYAASNQGSGVPSRFSGSGSGTDFTLTISSLQPDDFATYYCQQSKEVPWTFGQGTKVEIK
# notes: also called anti-CD33×TCRvβ antibody BJM0387
# B4: BJM1078 (antibody, V domains shown)
# VH: EIQLLESGGGLVQPGGSLRLSCAVSGFSITTTGYHWNWVRQAPGKGLEWVGYIYSSGSTSYNPSLKSRFTISRDTSKNTFYLQMNSLRAEDTAVYYCARGDWHYFDYWGQGTMVTVSS
# VL: SSETTQPPSVSVSPGQTASITCSGEKLSDKYVHWYQQKPGQSPVMVIYENDRRPSGIPERFSGSNSGNTATLTISGTQAMDEADYFCQFWDSTNSAVFGGGTQLTVL
# notes: only 'BJM0407 Parental'; also called BJM0407 Parental
# B5: BKM0140 (scFv)
# scFv: EIQLLESGGGLVQPGGSLRLSCAVSGFSITTTGYHWNWVRQAPGKGLEWVGYIYSSGSTSYNPSLKSRFTISRDTSKNTFYLQMNSLRAEDTAVYYCARGDWHYFDYWGQGTMVTVSSGGGGSGGGGSGGGGSGGGGSSSETTQPPSVSVSPGQTASITCSGEKLSDKYVHWYQQKPGQSPVMVIYENDRRPSGIPERFSGSNSGNTATLTISGTQAMDEADYFCQFWASTNSAVFGGGTQLTVL
# notes: also called BJM0407 VL-D92A
# B6: BKM0141 (scFv)
# scFv: B5 scFv with A229D, N232A
# notes: also called BJM0407 VL-N95A
# B7: BKM0145 (scFv)
# scFv: B5 scFv with N62A, N232A
# notes: also called BJM0407 VH-N60A-VL-D92A-N95A
# B8: BKM0143 (scFv)
# scFv: B5 scFv with N62A, A229D
# notes: also called BJM0407 VH-N60A
# B9: BJM1079 (scFv)
# scFv: EIQLLESGGGLVQPGGSLRLSCAVSGFSITTTGYHWNWVRQAPGKGLEWVGYIYSSGSTSYNPSLKSRFTISRDTSKNTFYLQMNSLRAEDTAVYYCARGDWHYFDYWGQGTMVTVSSGGGGSGGGGSGGGGSGGGGSDSVTTQSPLSLPVTLGQPASISCSGEKLSDKYVHWYQQRPGQSPRMLIYENDRRPSGVPDRFSGSNSGNDATLKISRVEAEDVGVYFCQFWDSTNSAVFGGGTKVEIK
# notes: only 'BJM0411 Parental'; also called BJM0411 Parental
# B10: BKM0139 (scFv)
# scFv: B9 scFv with D230A
# notes: also called BJM0411 VL-D92A
# B11: BKM0144 (scFv)
# scFv: B9 scFv with N62A, D230A, N233A
# notes: also called BJM0411 VH-N60A-VL-D92A-N95A
# B12: BKM0142 (scFv)
# scFv: B9 scFv with N62A
# notes: also called BJM0411 VH-N60A
# B13: BKM0138 (scFv)
# scFv: B9 scFv with N233A
# notes: also called BJM0411 VL-N95A
# Biological target: T2, human TCRvβ (BIM0444) (human)
# T2 construct: also called human TCRβvP; human TCRvβ 6-5
# T2 sequence (A0A0K0K1A5 22-114): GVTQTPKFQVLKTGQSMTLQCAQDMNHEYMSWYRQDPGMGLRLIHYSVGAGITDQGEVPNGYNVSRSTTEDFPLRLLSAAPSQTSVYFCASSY
# Experiment: SPR (Biacore): antibody captured via anti-human Fc on CM5, BIM0444 as analyte, 1:1 fit
row,Kd [nM],Binder
1,11,B1
2,2.7,B2

# Biological target: T3, CD33 expressed on cells (MOLM-13, MV411, HL60) (human, UniProt P20138 18-364)
# T3 construct: whole, on cells; also called CD33+ MOLM-13 cells; CD33-expressing MOLM-13 cells
# T3 sequence (P20138 18-364): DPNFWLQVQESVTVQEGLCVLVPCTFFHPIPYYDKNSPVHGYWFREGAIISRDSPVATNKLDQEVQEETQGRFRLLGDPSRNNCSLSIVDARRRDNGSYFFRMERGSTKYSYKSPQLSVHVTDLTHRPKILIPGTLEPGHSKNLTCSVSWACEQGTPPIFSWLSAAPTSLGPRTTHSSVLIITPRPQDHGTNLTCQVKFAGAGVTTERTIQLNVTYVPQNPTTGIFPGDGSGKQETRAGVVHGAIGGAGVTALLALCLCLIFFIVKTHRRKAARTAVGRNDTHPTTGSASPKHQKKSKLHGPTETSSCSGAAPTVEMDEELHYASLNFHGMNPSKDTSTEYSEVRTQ
# Experiment: binding to CD33+ MOLM-13 cells (cell binding assay)
row,binding result,Binder
1,binds,B3

# Biological target: T1, Human NKp30 (BKM0179)
# Experiment: SPR (Biacore T200): human NKp30 BKM0179 captured via anti-mouse Fc on CM5, antibody as analyte, 1:1 fit
row,Kd [nM],Binder
1,1.48,B4
2,3.3,B5
3,3,B6
4,4.2,B7
5,1.45,B8
6,1.26,B9
7,3.2,B10
8,6.4,B11
9,1.28,B12
10,3.2,B13
